In patent US20250134019A1, “TRIKETONE DIOXYGENASE VARIANTS FOR HERBICIDE TOLERANCE” (Monsanto Technology LLC, priority 2022, published 2025):
Residue numbers refer to the chain shown, from its start. In names and notes the source's numbering stands.

Key:
[1] = tested on: transgenic soybean plants; experiment: Mesotrione injury of R0 transgenic soybean plants expressing TDO homologs; type: in vivo; conditions: promoter Constitutive 1, 3' UTR A; 210 g a.i./ha mesotrione at V3-V4, rated 7-14 days after treatment; mean of all tested events
Description: Plant expression vectors comprising the selected TDO homologs under the control of one of two constitutive promoters were transformed into soybean via an Agrobacterium tumefaciens-mediated method. Following Agrobacterium transformation, R0 transgenic soybean plants containing a single copy of the transgene were identified through molecular characterization and segregation analysis. Transgenic and wild-type (control) plants were grown in 6-inch pots filled with BM7 soilless mix in a growth chamber under the conditions of 28° C./23° C. (light/dark) and a 16 hr light/8 hr dark photoperiod. Plants were fertilized with 15-5-15 liquid fertilizer at the V3-V4 growth stage and treated with 210 g a.i./ha mesotrione (1X=105 g a.i./ha; Callisto®, Syngenta in 1% crop oil). Plants were visually rated 7-14 days after treatment on a scale of 0% to 100%, with 0%=no injury and 100%=plant death, relative to the wild-type controls. The results summarized in Table 2 represent the mean of all tested events (10-15) for each construct.

[2] = Specific activity of purified TDO proteins, second hydroxylation of mesotrione; type: biochemical; conditions: FIG. 8
From the text: Activity was expressed as nmol/min/mg protein and was the mean of three separate assays on the same enzyme sample (technical reps).
To test the hypothesis, the four amino acids of sorghum TDO corresponding to amino acid positions 230, 301, 332, and 335 in rice TDO were replaced with those of rice TDO. The corn, rice, sorghum, and the modified sorghum TDO genes were cloned into a pET28 vector for E. coli expression with His6 tag in the N-terminus. Subsequently, the proteins were expressed and purified by affinity chromatography. BL21-CodonPlus (DE3)-RIPL E. coli cells (Stratagene) were used for expression. Cells transformed with expression vector were grown in autoinduction media (AIM) supplemented with 100 μg mL-1 kanamycin and 34 μg mL-1 chloramphenicol.
TDO proteins used in this study were expressed in AIM cells using an auto-induction system as described by Studier (2014). Briefly, the recombinant cultures were grown at 37° C. for 3 hours and then 20° C. for one or two days. Cells were harvested by centrifugation and frozen at −80° C. The pellet was resuspended in lysis buffer (Bper and Yper [Pierce] with ratio 3 to 1, 25 mM Tris-HCl, 300 mM NaCl, 10 mM imidazole, pH 8.0). 150 mM ferric ammonium citrate (1000X) was added to the lysate to a final concentration of 150 µM and incubated on ice for 20 minutes. The lysate was centrifuged to clarify the supernatant. Clear supernatant was loaded onto a 5 mL Ni column connected to AKTA Express (GE Healthcare). […] Protein concentrations were determined spectrophotometrically based on their calculated molar absorption extinction coefficients at 280 nm.
TDO activity was measured by the second hydroxylation of mesotrione. For routine activity measurements of TDO and determining the kinetic properties of the second hydroxylation, the continuous change in A330, which is specific to the second hydroxylation and subsequent non-enzymatic water removal (i.e. the conversion of hydroxy-mesotrione to oxy-mesotrione), was monitored. […] The reaction proceeded until the maximum A330 was obtained (usually 20-120 minutes depending upon the concentration of mesotrione) and the linear portion of the curve was determined by visual inspection. […]
For the activity calculation, aliquots of the reaction were removed at various time points during the reaction and heated at 95° C. to halt the reaction. The reaction mixtures were analyzed by HPLC and mass spectrophotometry. By product conversation followed by peak integration on HPLC, a linear plot was obtained and the extinction co-efficient delta between the substrate (mesotrione) and the second product (oxy-mesotrione) was obtained according to the equation ΔA330=(εp-εs)*bΔp where ΔA330 is the change of absorbance at 330 nm and b is the light path.

[3] = tested on: transgenic soybean plants; experiment: TDO protein level (ELISA) and mesotrione injury of transgenic soybean at normal vs elevated temperature; type: in vivo; conditions: elevated temperature (99° F.)
Description: Os.TDO-transgenic soybean plants and wild-type control plants were grown at 80° F. until V2 growth stage, then half of the plants were transferred to 99° F. After 3 days, leaf samples were harvested to determine TDO protein levels, and plants were then treated with 2X and 8X rates of mesotrione. Crop injury ratings were taken 11 days after mesotrione treatment. […] The black bars represent TDO protein levels in parts per million per dry weight; the gray bars represent plant injury rate (%) to 2X and 8X mesotrione treatments.
Soybeans were planted and grown under typical greenhouse conditions (85° F. day, 75° F. night) until approximately V3 growth stage. At that time, half of the plants were moved to a higher temperature growth chamber (99° F. day, 82° F. night; 60% relative humidity) for three days prior to leaf sample collection and a spray application of 4X rate mesotrione. Mesotrione was applied to both greenhouse and growth chamber plants. Visual injury ratings were taken at 7 days after treatment. […] The gray bars represent mesotrione injury ratings at 85° F. and the black bars represent mesotrione injury ratings at 99° F. for these transgenic plants.
The TDO variants were grown at 85° F. (gray) vs 99° F. (black). […]
The enzyme activity was measured at room temperature for the hydroxylation of mesotrione, and was defined as Kcat/Km, M-1 sec-1 (specificity constant). […]

[4] = tested on: transgenic soybean plants; experiment: Field testing of variant D08 for mesotrione tolerance; type: in vivo; conditions: field setting, no control of temperature
Description: Since this testing was conducted in the field, there was no control on the temperature ranges the plants were exposed to.

transgenic cotton plants = experiment: Mesotrione treatment of cotton plants expressing TDO variants, crop injury; type: in vivo; conditions: for Crop Injury (%), 210 g/ha (2X) Mesotrione / Crop Injury (%), 840 g/ha (8X) Mesotrione: R2 cotton sprayed at V3
Description: Cotton is a crop of interest that is often exposed to high temperature growing conditions and thus, selected TDO variants were tested in cotton. Three TDO variants, D08, TDO_6, and TDO_8 were transformed into cotton (along with the Os.TDO control) using similar expression elements in single-cassette vectors or as part of multi-cassette vectors. R2 transgenic cotton plants were then screened for tolerance to mesotrione. Sixteen plants from two events each per construct were sprayed with two rates (2X and 8X) of mesotrione at V3 stage under normal (80° F.) and hot (100° F.) growing conditions. In addition, the effect of heat treatment on TDO accumulation in cotton plants were measured by ELISA. Cotton plants were planted and grown under normal greenhouse conditions (80° F. day/70° F. night) until V3 growth stage. Half of the plants were then moved to a higher temperature growth chamber (100° F. day/82° F. night) for the heat treatment, whereas the remaining half of the plants stayed in the same greenhouse (80° F. day/70° F. night). At day 3 after the plants were placed under different temperature conditions, leaf samples were collected for TDO protein measurement. The plants in 100° F. growth chamber and in 80° F. greenhouse were both sprayed with 2X mesotrione (210 g a.i./ha). Leaf samples were collected again 7 days after mesotrione treatment (DAT: Days After Treatment) for protein assay. Table 5 compares protein levels of the TDO variants in transgenic cotton plants grown under the two tested conditions. The protein levels for the TDO variants were measured at three time points for plants: 1) just before entering the high temperature treatment, 2) three days following placement into control (normal growth temperature) or high temperature (100° F.), and 3) 7 days after a 2X mesotrione spray.

[5] = specific activity of second hydroxylation

B1: Zm.TDO: TDO homolog from Zea mays, SEQ ID NO:4 (protein)
chain: MADESWRVPTPVQELAATLEEPPSRYVLQEKDRRGSPLVADDMPEPLPVINLSRLSEDATEAAKLESALQSWGLVLVTNHGIETSLMDGVMDASREFFRQPLEEKQKYSNLIDGKRFQVEGYGNDRVATERQILNWNDRLHLKVAPEDERDYTHWPKHPESFRDVLHEYALETKRVRDGIFRATAKILELDEDHFVRLISDRAAAFARFNYYPPCPRPDLVNGVQPHSDAGVLTILLVDKDVRGLQVQRDGVWYNVPPMPYTLLINLGDIMEIMSNGILKSPVHRVVTNAEKERISLAVFYGVGAENALEPAAGLLDEKRPARYRKISMTDFIAGIHGQFSRGTRFIESLKI
modifications: Zea mays
% Injury [1]: 15%
activity lower than rice TDO [2, 5]: about 30%

B2: D08: Os.TDO variant D08, SEQ ID NO:18, 20 amino acid changes relative to Os.TDO (protein)
chain: MADESWRAPALVQELAAKGVEEPPSRYLLREQDRPDVKLVAAELPEPIPVVDLGRLDGAEEATKLRVALQNWGFFLLTNHGIEASLMDDVMNLSREFFNQPIERKQKFSNLIDGKHFQIEGYGTDRVVTQDQVLDWSDRLHLRVEPKEEQDLAFWPDHPESFRDVLHKYASGCKRIRDDIIQAMAKLLELDEDYFLDRFNEAPTFARFNYYPPCPRPDLVFGIRPHSDGGLLTILLVDKDVGGLQVQRDGKWSNVPATPHTLLINLGDTMEVMSNGIFKSPVHRVVTNAEKERISLAMLYSVNDEKDIEPAAGLLDENRPARYRKVSVEEFRAGIFGKFSRGERYIDSLRI
modifications: TDO variant sequence
injury ratings after mesotrione application relative to Os.TDO control [3]: possibly trending lower injury relative to the Os.TDO control
tolerance to mesotrione spray treatment [4]: good tolerance
Crop Injury (%), 210 g/ha (2X) Mesotrione (transgenic cotton plants; Under 80° F.): 0%
Crop Injury (%), 840 g/ha (8X) Mesotrione (transgenic cotton plants; Under 80° F.): 0%
Crop Injury (%), 210 g/ha (2X) Mesotrione (transgenic cotton plants; Under 100° F.): 0%
Crop Injury (%), 840 g/ha (8X) Mesotrione (transgenic cotton plants; Under 100° F.): 0%
injury rates relative to Os.TDO controls (transgenic cotton plants; cotton at the higher temperature): trending even lower than the Os.TDO controls

B3: Sb.TDO: TDO homolog from Sorghum bicolor, SEQ ID NO:6 (protein)
chain: MAGESWKVPTPVKDLAALVEEPPSQFVQREEDRPGSLMLAADMPDPLPIVDLDKMSTADEATKLRSALQTWGLFLATNHGIDVSLMEDLMKASREFFNQPLQERQKYSNLREGTRFQLEGYGSDPVIAQDHILDWSDRLQLKVEPEDERNLAQWPKHPESFRDLLHEYATKTKTVMVKILRAMAKTLELDEEDFIDQIGGRPQAYARFNYYPPCPRPELVLGIKAHSDGPLLTVLLVDREVGGLQIQRENKWFNVPSIPHALVINLGDSLEIMSNGIFKSPVHRVVTNAEKERISLAMLYAVQRDNVLEPAPGLLDEKRPAKYRRITEAHFLEGVKEHFSKGMRMIETLKI
modifications: Sorghum bicolor
% Injury [1]: 35%
specific activity of the second hydroxylation ([2]; purified His6-tagged protein from E. coli): not significantly different from the blank

B4: SwM: Sb.TDO variant SwM, SEQ ID NO:48, substitutions P230T-A301S-L332R-V335I (protein)
chain: B3 chain with P230T, A301S, L332R, E333A, V335I
modifications: TDO variant sequence
activity compared to the rice TDO protein [2, 5]: about 17%
